The data set in a line: protein stability index of a GFP-peptide fusion (GPS, HEK-293T) (PSI 1-6); higher = more stable. The note with it: c terminus: a fixed tail appended.

± gives the standard deviation.
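Further: 24-mer peptide tiles fused after GFP, lentivirally expressed, FACS-sorted into six equal bins by GFP/DsRed ratio, decoded by Illumina sequencing, PSI is the read-weighted mean bin number.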

On to FDTLATVGTGTFGRVHLVKEKTAK [PRKX], for which the protein stability index was 4.66 ± 0.22 (treatment: DMSO) and 4.54 ± 0.41 (treatment: MLN4924 1 uM, 8 h).

Regarding FEFEVRVCDSCHEAITDEERAPTA [WDFY2], the protein stability index reads like this: (treatment: DMSO) 3.48 ± 0.33; (treatment: MLN4924 1 uM, 8 h) 3.57 ± 0.086.

FEKWEQETAAGKGKGEARARLKRS [SMTNL2]: the protein stability index reads like this: (treatment: DMSO) 4.87 ± 0.15; (treatment: MLN4924 1 uM, 8 h) 5.07 ± 0.21.

As for FERLCLTWMFFFMMCVAERTYKQR [PHTF1], the protein stability index by setting is: (treatment: DMSO) 2.82 ± 0.54; (treatment: MLN4924 1 uM, 8 h) 3.3 ± 0.49.

As to FEYSTIKCRDLSALMHELSNDGAR [BTBD10], the protein stability index reads like this: (treatment: DMSO) 2.53 ± 0.31; (treatment: MLN4924 1 uM, 8 h) 2.57 ± 0.41.

Take FFGMAFNFIVNDSRKKPIWNVLMW [SOAT1]: the protein stability index (treatment: DMSO) was 2.6 ± 0.55 and the protein stability index (treatment: MLN4924 1 uM, 8 h) stood at 2.19 ± 0.73.

Consider FFLAILSCSEICYTFIIVPKMLVD [OR10K2], for which the protein stability index was 3.42 ± 0.36 (treatment: DMSO) and 2.89 ± 0.28 (treatment: MLN4924 1 uM, 8 h).

In turn, FFNTLHVGGTIRTCQKFLIQYNRR [POP5] gave a protein stability index (treatment: DMSO) of 2.02 ± 0.19 and a protein stability index (treatment: MLN4924 1 uM, 8 h) of 2.06 ± 0.23.

Sequence FGGPFVESSTREVVFPYTSKSCMR [RHOBTB2] returned a protein stability index (treatment: DMSO) of 2.54 ± 0.8 and a protein stability index (treatment: MLN4924 1 uM, 8 h) of 2.98 ± 0.75.

For the sequence FIALLILFILSTLVVDYIDEGRLV [SOAT1], the protein stability index by setting is: (treatment: DMSO) 3.18 ± 0.3; (treatment: MLN4924 1 uM, 8 h) 3.26 ± 0.5.

As to FIYMVLSLFIALITGAYDTIKHPG [MCOLN1], the protein stability index runs as follows: (treatment: DMSO) 2.94 ± 0.21; (treatment: MLN4924 1 uM, 8 h) 2.85 ± 0.28.

As for FLDIPRSRLVKYPLLLKEILKHTP [NET1], the protein stability index by setting is: (treatment: DMSO) 1.99 ± 0.55; (treatment: MLN4924 1 uM, 8 h) 2.34 ± 0.18.

With FLMDLPSAGRSMPEASDQEEHLSP [RNF180], the protein stability index runs as follows: (treatment: DMSO) 4.82 ± 0.21; (treatment: MLN4924 1 uM, 8 h) 5.08 ± 0.14.

For the sequence FLTTAIRPHGIFGPRDPQLVPILI [NSDHL], the protein stability index by setting is: (treatment: DMSO) 2.69 ± 0.53; (treatment: MLN4924 1 uM, 8 h) 2.42 ± 0.41.

As to FLVVLKTVLENEDDMLLFDEQEKG [FAN1], the protein stability index (treatment: DMSO) was 2.34 ± 0.23 and the protein stability index (treatment: MLN4924 1 uM, 8 h) was found to be 2.28 ± 0.26.

On to FPELGYSYGGGSASSQHSEGSRSS [DVL3], for which the protein stability index was found to be 3.39 ± 0.28 (treatment: DMSO) and 4.03 ± 0.53 (treatment: MLN4924 1 uM, 8 h).

In the case of FPRLNRNKYMVTDGAAYIGNFDWV [PLD5], the protein stability index amounted to 2.32 ± 0.89 (treatment: DMSO) and 2.32 ± 0.23 (treatment: MLN4924 1 uM, 8 h).

With FQFLSWPDYGVPSSAASLIDFLRV [PTPN9], the protein stability index stood at 2.7 ± 0.36 (treatment: DMSO) and 2.53 ± 0.41 (treatment: MLN4924 1 uM, 8 h).

On to FRQLCYQETPGPREALTRLQELCY [ZSCAN9], for which the protein stability index is, setting by setting: (treatment: DMSO) 2.48 ± 0.14; (treatment: MLN4924 1 uM, 8 h) 2.62 ± 0.25.

For the sequence FSQETVMKFVPRYSLVLELSDSGA [APMAP], the protein stability index by setting is: (treatment: DMSO) 2.75 ± 0.71; (treatment: MLN4924 1 uM, 8 h) 2.09 ± 0.27.

FSSYNKQDNNCHFDAALVSFINFF [SLC6A17] gave a protein stability index (treatment: DMSO) of 2.81 ± 0.39 and a protein stability index (treatment: MLN4924 1 uM, 8 h) of 2.64 ± 0.41.

As for FVDFFVRLFTQLKFGVVQTSVEEC [CLCN6], the protein stability index by setting is: (treatment: DMSO) 3.59 ± 0.27; (treatment: MLN4924 1 uM, 8 h) 3.07 ± 0.68.

FYIGKYFGGVLEYFMIQALNQKTS [RHOBTB3]: the protein stability index is 2.96 ± 0.33 (treatment: DMSO) and 3.31 ± 0.58 (treatment: MLN4924 1 uM, 8 h).

FYKDWWNSTSYSNYYRTWNVVVHD [SOAT1] displayed a protein stability index (treatment: DMSO) of 2.46 ± 0.39 and a protein stability index (treatment: MLN4924 1 uM, 8 h) of 2.15 ± 0.31.

For GALPVGSNLTSNLASLVSQGMIQL [RETREG3], the protein stability index amounted to 2.21 ± 0.24 (treatment: DMSO) and 2.46 ± 0.16 (treatment: MLN4924 1 uM, 8 h).

Consider GAPTSLQTEPQDRSPAPMSCDKST [BCL2L11], for which the protein stability index by setting is: (treatment: DMSO) 5.36 ± 0.3; (treatment: MLN4924 1 uM, 8 h) 5.36 ± 0.1.

With GARCATWFQDPTRFTGTMDAFVKI [SLC25A39], the protein stability index worked out at 2.36 ± 0.5 (treatment: DMSO) and 2.61 ± 0.54 (treatment: MLN4924 1 uM, 8 h).

As for GATYLELHSLDDFYIGKYFGGVLE [RHOBTB3], the protein stability index is, setting by setting: (treatment: DMSO) 2.6 ± 0.61; (treatment: MLN4924 1 uM, 8 h) 2.32 ± 0.23.

For GAVTASKHSNSPPLVTPPQSPVSP [SMTNL2], the protein stability index came to 5.33 ± 0.25 (treatment: DMSO) and 5.26 ± 0.19 (treatment: MLN4924 1 uM, 8 h).

For the sequence GCKGFFRRSMKRKALFTCPFNGDC [VDR], the protein stability index (treatment: DMSO) was 2.47 ± 0.43 and the protein stability index (treatment: MLN4924 1 uM, 8 h) came to 2.21 ± 0.14.

GDLAYRRQEYQKALQEYSSISEKL [C8orf76]: the protein stability index reads like this: (treatment: DMSO) 4.14 ± 0.25; (treatment: MLN4924 1 uM, 8 h) 4.16 ± 0.2.

Regarding GDLQETTVVTGLGPDTQDLEGQSP [PBXIP1], the protein stability index amounted to 5.62 ± 0.23 (treatment: DMSO) and 5.58 ± 0.2 (treatment: MLN4924 1 uM, 8 h).

For the sequence GDVAIKLKFLEENKIKVMHKQLLL [ARFIP2], the protein stability index was determined as 2.25 ± 0.31 (treatment: DMSO) and 2.12 ± 0.26 (treatment: MLN4924 1 uM, 8 h).

As for GDVMFTGTADGRVVKLENGEIETI [APMAP], the protein stability index was determined as 4.73 ± 0.51 (treatment: DMSO) and 5.06 ± 0.29 (treatment: MLN4924 1 uM, 8 h).

For the sequence GEATAAPAPLCGGPSAEAYLLHPA [TBX6], the protein stability index amounted to 4.17 ± 0.22 (treatment: DMSO) and 4.47 ± 0.13 (treatment: MLN4924 1 uM, 8 h).

GEGVDKLSLPARNQAGYFMLPTVI [ALDH8A1]: the protein stability index runs as follows: (treatment: DMSO) 2.19 ± 0.18; (treatment: MLN4924 1 uM, 8 h) 2.36 ± 0.18.

For GELLATGDKGGRVVIFQREPESKN [PPP2R2C], the protein stability index runs as follows: (treatment: DMSO) 4.61 ± 0.37; (treatment: MLN4924 1 uM, 8 h) 4.93 ± 0.21.

As for GEQDCCGERVVINISGLRFETQLK [KCNA3], the protein stability index is 2.52 ± 0.21 (treatment: DMSO) and 2.57 ± 0.35 (treatment: MLN4924 1 uM, 8 h).

For the sequence GEQDTWAGEGAEALARNLLVDGET [NFE2L1], the protein stability index runs as follows: (treatment: DMSO) 5.18 ± 0.57; (treatment: MLN4924 1 uM, 8 h) 5.15 ± 0.46.

For the sequence GEVIHCKLRAMKELSEAAEAQHGP [STX11], the protein stability index by setting is: (treatment: DMSO) 4.03 ± 0.38; (treatment: MLN4924 1 uM, 8 h) 4.22 ± 0.11.

GEVLKSSTFSSGPSDKMKWCLRVN [SPOPL]: the protein stability index reads like this: (treatment: DMSO) 2.46 ± 0.26; (treatment: MLN4924 1 uM, 8 h) 2.43 ± 0.23.

With GFPRVAPEDEVIVNQYVIRPGPSA [RNF208], the protein stability index came to 3.66 ± 0.25 (treatment: DMSO) and 3.67 ± 0.13 (treatment: MLN4924 1 uM, 8 h).

GFSCNQGRYPLIQTLRQELSLPYL [CHIT1]: the protein stability index runs as follows: (treatment: DMSO) 2.16 ± 0.33; (treatment: MLN4924 1 uM, 8 h) 2.4 ± 0.24.

Regarding GGDGDDMEIFMEEMREIRRKLREL [BEX3], the protein stability index worked out at 3.13 ± 0.49 (treatment: DMSO) and 2.04 ± 0.4 (treatment: MLN4924 1 uM, 8 h).

Regarding GGFGGGVGGGFGGGFGGGDGGLLS [KRT15], the protein stability index reads like this: (treatment: DMSO) 3.4 ± 0.71; (treatment: MLN4924 1 uM, 8 h) 3.98 ± 0.14.

On to GGGADTGTGGEEVEALQLSARWLE [FBXO33], for which the protein stability index runs as follows: (treatment: DMSO) 4.91 ± 0.41; (treatment: MLN4924 1 uM, 8 h) 5.03 ± 0.43.

With GGGGQGDGGSSLASGSTQRQPPPP [FBXO28], the protein stability index is 5.38 ± 0.19 (treatment: DMSO) and 5.27 ± 0.29 (treatment: MLN4924 1 uM, 8 h).

Consider GGGPGDGGGADTGTGGEEVEALQL [FBXO33], for which the protein stability index is, setting by setting: (treatment: DMSO) 5.38 ± 0.16; (treatment: MLN4924 1 uM, 8 h) 5.32 ± 0.37.

GGLLSYDEGGITKQPPVTQSKTAS [FBF1] yielded a protein stability index (treatment: DMSO) of 4.96 ± 0.18 and a protein stability index (treatment: MLN4924 1 uM, 8 h) of 4.89 ± 0.33.

Consider GGTVKLADFGLARIYSYQMALTPV [CDK4], for which the protein stability index is, setting by setting: (treatment: DMSO) 2.36 ± 0.27; (treatment: MLN4924 1 uM, 8 h) 2.17 ± 0.11.

For GGYGGGVSCGFGGGAGSGFGGGYG [KRT13], the protein stability index was 2.23 ± 0.19 (treatment: DMSO) and 2.38 ± 0.28 (treatment: MLN4924 1 uM, 8 h).

For GHRPPPARSGHRCVADNTNLYVFG [KLHDC10], the protein stability index (treatment: DMSO) was 2.3 ± 0.33 and the protein stability index (treatment: MLN4924 1 uM, 8 h) is 2.44 ± 0.24.

The record behind these values is the supplement of paper PMC10567573.
